Data: US20210309747A1 (I MAB BIOPHARMA US, published 2021)
Read-outs that look alike come from different tables or passages of the source.

Columns and labels:
[1] = molecular target: T1, recombinant human PD-L1 (Sino Biological, Cat#: 10084-H08H) (human, UniProt Q9NZQ7 19-238); assay: ELISA, plate coated with human PD-L1 at 1 ug/ml, detection with goat anti-human IgG-HRP, OD450
T1 construct: Bought protein; also called human PD-L1 protein
Description: To evaluate antigen binding activity, the antibodies were subjected to ELISA test. Briefly, microtiter plates were coated with human PD-L1 protein at 1 μg/ml in PBS, 100 μl/well at 4° C. overnight, then blocked with 100 μl/well of 1% BSA. 4-fold dilutions of humanized antibodies starting from 10 μg/ml were added to each well and incubated for 1-2 hours at RT. The plates were washed with PBS/Tween and then incubate with goat-anti-human IgG antibody conjugated with Horse Radish Peroxidase (HRP) for 1 hour at RT. After washing, the plates were developed with TMB substrate and analyzed by spectrophotometer at OD 450 nm.

[2] = molecular target: T2, human PD-L1 on Raji cells (human, UniProt Q9NZQ7 19-290); assay: cell-based or functional assay
T2 sequence (Q9NZQ7 19-290): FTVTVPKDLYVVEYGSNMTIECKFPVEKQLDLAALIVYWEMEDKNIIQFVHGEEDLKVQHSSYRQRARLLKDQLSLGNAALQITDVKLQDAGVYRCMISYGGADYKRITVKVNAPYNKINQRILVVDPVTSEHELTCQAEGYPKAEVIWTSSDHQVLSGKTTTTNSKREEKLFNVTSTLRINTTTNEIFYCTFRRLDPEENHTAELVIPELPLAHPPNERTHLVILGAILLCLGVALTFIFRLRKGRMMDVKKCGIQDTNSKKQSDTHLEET

[3] = molecular target: T2, human PD-L1 on Raji cells; assay: cell-based or functional assay; remark: listed apart in the source

T1 sequence (Q9NZQ7 19-238 limits assumed): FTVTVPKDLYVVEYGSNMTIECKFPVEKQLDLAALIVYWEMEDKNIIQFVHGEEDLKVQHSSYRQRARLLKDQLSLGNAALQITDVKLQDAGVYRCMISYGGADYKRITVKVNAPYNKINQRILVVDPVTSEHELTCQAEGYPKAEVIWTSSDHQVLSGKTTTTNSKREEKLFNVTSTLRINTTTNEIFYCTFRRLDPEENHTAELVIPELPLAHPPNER

Binder | EC50 [1] [nM] | EC50 (NF-AT-luciferase RLU) [2] [nM] | EC50 (NF-AT-luciferase RLU) [3] [nM]
B08 (antibody, V domains shown, Fab phage clone converted into full-length IgG; also called 67C2-1) VH: EVQLLESGGGLVQPGGSLRLSCVGSGFTFSDHYMDWVRQAPGKGLEWVSSISSSSSYIYYADSVKGRFTISRDNAKNSLYLQMNSLRAEDTAVYYCARGRVGATNRFGMDVWGQGTMVTVSA VL: DIQMIQSPSSVSASVGDRVTITCRASESISRWLAWYQQKPGKAPKLLIYAASNLESGVPSRFSGSGSGTEFTLTISSLQPEDFATYYCQQAESFPSFGQGTRLEIK | 1.63 |  | 
B06-01 (antibody, V domains shown) VH: not shown VL: DIQMTQSPSSLSASVGDRVTITCRASQGISSYLAWYQQKPGKAPKLLIYAASTLQSGVPDRFSGSGSGTDFTLTISSLQAEDVAVYYCQQYLSVPYTFGQGTKVEIK |  | 0.383 | 
B06-02 (antibody, V domains shown) VH: not shown VL: DIQMTQSPSSLSASVGDRVTITCRASQGISSYLAWYQQKPGKAPKLLIYAASTLQSGVPDRFSGSGSGTDFTLTISSLQAEDVAVYYCQQYLSVPYTFGQGTKVEIK |  | 0.97 | 
B06 (antibody, V domains shown, Fab phage clone converted into full-length IgG; also called 67A3-40) VH: not shown VL: DIQMTQSPSSLSASVGDRVTITCRASQGISSYLAWYQQKPGKAPKLLIYAASTLQSGVPDRFSGSGSGTDFTLTISSLQAEDVAVYYCQQYLSVPYTFGQGTKVEIK | 0.236 |  | 0.516
B06-03 (antibody, V domains shown) VH: not shown VL: DIQMTQSPSSLSASVGDRVTITCRASQGISSYLAWYQQKPGKAPKLLIYAASTLQSGVPDRFSGSGSGTDFTLTISSLQAEDVAVYYCQQYLSVPYTFGQGTKVEIK |  | 0.907 | 
B07 (antibody, V domains shown, Fab phage clone converted into full-length IgG; also called 67C1-5) VH: EVQLLESGGGLVQPGGSLRLSCAASGFTFSSYWMSWVRQAPGKGLEWVANIKQDGSEKYYVDSVKGRFTISRDNAKNSLYLQMNSLRAEDTAVYYCARVCGYDDAFDIWGQGTMVTVSA VL: NIQMTHSPSTLSASVGDRVTISCRASQSISTWLAWYQQKPGKAPKLLIYKASSLESGVPSRFSGSGSGTDFTLTISSLQPEDFATYYCQQSYSIPLTFGGGTKVEIK | 0.124 |  | 1.02
B14 (antibody, V domains shown, Fab phage clone converted into full-length IgG; also called 67C2-19) VH: EVQLLESGGGEVQPGRSLRLSCAASGFSFSSYWMSWVRQAPGKGLEWVANIKEDGSEKYYVDSVKGRFTISRDNAKNSLYLQMNSLRAEDTAVYYCARVVRFNDAFDIWGQGTMVTVSA VL: NIQLTQSPSSVSASVGDRVTITCRASQGISSWLAWYQQKPGKAPKLLIYAASSLQSGVPSRFSGSGSGTDFTLTISSLQPEDFATYYCQQANSFPFTFGPGTKVDIK | 0.222 |  | 
B13 (antibody, V domains shown, Fab phage clone converted into full-length IgG; also called 67C1-10) VH: EVQLLESGGGLVQPGGSLRLSCAASGFTFSSYWMSWVRQAPGKGLEWVANIKQDGSEKYYVDSVKGRFTISRDNAKNSLYLQMNSLRAEDTAVYFCARSTVKYGADDAFDIWGQGAMVTVSA VL: NIQMTQSPSTLSASVGDRVTITCRASQSISSWLAWYQQKPGKAPKLLIYKASSLQSGVPSRFSGSGSGTDFTLTISSLQPEDFATYYCQQSYSTPFTFGPGTKVDIK | 0.13 |  | 
B03 (antibody, V domains shown, Fab phage clone converted into full-length IgG; also called 67A3-14) VH: EVQLLESGGGLVQPGGSLRLSCAASGFSFSSYWMSWVRQAPGKGLEWVANIKEDGSEKYYVDSVKGRFTISRDNAKNSLYLQMNSLRAEDTAVYYCARVVRFNDAFDIWGQGTMVTVSA VL: DIQLTQSPSTLSASVGDRVTITCRASQSIDTWLAWYQQKPGKAPKLLIHNASTLKSGVSSRFSGSGSGTDFTLTISSLQPEDFATYYCQQSYSTPLTFGGGTKVEIK | 1.28 |  | 
B04 (antibody, V domains shown, Fab phage clone converted into full-length IgG; also called 67A3-15) VH: QVQLLDSGGGLVQPGGSLRLSCAASGFTFSSYWMSWVRQAPGKGLEWVANIKQDGSEKYYVDSVKGRFTISRDNAKNSLYLQMNSLRAEDTAVYYCARTMLWDDAFDIWGQGTMVTVSA VL: DIQLTQSPSTLSASVGDRVTITCRASESISSWLAWYQQKPGKVPKLLIYKASSLESGVPSRFSGSGSGTDFTLTISSLQPEDFATYYCQQSYSTPPTFGQGTKVEIK | 0.19 |  | 2.34
B16 (antibody, V domains shown, Fab phage clone converted into full-length IgG; also called 67C3-10) VH: QVQLLDSGGGLVQPGGSLRLSCAASGFTFSSYWMSWVRQAPGKGLEWVANIKQDGSEKYYVDSVKGRFTISRDNAKNSLYLQMNSLRAEDTAVYYCARVALWDDAFDIWGQGTMVTVSA VL: DIQMTQSPSSLSASVGDRVTITCRASQSISSWLAWYQQKPGKAPKLLIYKASSLESGVPSRFSGSGSGTEFTLTISSLQPDDFATYYCQHSNSLPLTFGGGTKVEIK | 0.147 |  | 1.05
B10 (antibody, V domains shown, Fab phage clone converted into full-length IgG; also called 67C3-14) VH: QVQLVQSGGGLVQPGGSLRLSCAASGFTFSSYWMSWVRQAPGKGLEWVANIKQDGSEKYYVDSVKGRFTISRDNAKNSLFLQMNSLGAEDTAMYYCARATVKYGGDDAFDIWGQGTMVTVSA VL: NIQLTQSPSTLSASVGDRVTITCRASQSISDWLAWYQQKPGKAPNLLIYKASSLESGVPSRFSGSGSGTDFTLTISSLQPEDFATYYCQQSFSTPFTFGPGTKVDIK | 0.31 |  | 2.22
B12 (antibody, V domains shown, Fab phage clone converted into full-length IgG; also called 67C1-9) VH: QVQLLESGGGLVQPGGSLRLSCAASGFTFSSYWMSWVRQAPGKGLEWVANIKQDGSEKYYVDSVKGRFTISRDNAKNSLYLQMNSLRAEDTAVYYCARVALWDDAFDIWGQGTMVTVSA VL: NIQLTQSPSTLSASVGDRVIITCRASRGISSWLAWYQQKPGKAPNLLISKASSLESGVPSRFSGSGSGTDFTLTISSLQPEDFATYYCQQSSSIPLTFGGGTKVEIK | 0.142 | 0.545 | 0.439
B05 (antibody, V domains shown, Fab phage clone converted into full-length IgG; also called 67A3-21) VH: EVQLVETGRGLVQPGRSLRLSCAASGFTFSSYWMSWVRQAPGKGLEWVANIKQDGSEKYYVDSVKGRFTISRDNAKNSLYLQMNSLRAEDTAVYYCARGGYYGDDDAFDIWGQGTMVTVSA VL: NIQMTQSPSTLSASVGDRVTITCRASQSISSWLAWYQQKPGKAPKLLIYKASSLESGVPSRFSGSGSGTEFTLTISSLQPEDFATYYCQQTYSLPLTFGQGTRVGIK | 0.625 |  | 
B16-01 (antibody, V domains shown) VH: QVQLLDSGGGLVQPGGSLRLSCAASGFTFSSYWMSWVRQAPGKGLEWVANIKQDGSEKYYVDSVKGRFTISRDNAKNSLYLQMNSLRAEDTAVYYCARVALWDDAFDIWGQGTMVTVSS VL: DIQMTQSPSSLSASVGDRVTITCRASQSISSWLAWYQQKPGKAPKLLIYKASSLESGVPSRFSGSGSGTEFTLTISSLQPDDFATYYCQHSNSLPLTFGGGTKVEIK |  | 0.611 | 
B12-03 (antibody, V domains shown) VH: QVQLLESGGGLVQPGGSLRLSCAASGFTFSSYWMSWVRQAPGKGLEWVANIKQEGSEKYYVDAVKGRFTISRDNAKNSLYLQMNSLRAEDTAVYYCARVALWDDAFDIWGQGTMVTVSS VL: DIQMTQSPSTLSASVGDRVIITCRASRGISSWLAWYQQKPGKAPNLLISKASSLESGVPSRFSGSGSGTDFTLTISSLQPEDFATYYCQQSSSIPLTFGGGTKVEIK |  | 0.517 | 
B09 (antibody, V domains shown, Fab phage clone converted into full-length IgG; also called 67C2-9) VH: EVQLLESGGGLVQPGGSLRLSCAASGFTFSSYWMSWVRQAPGKGLEWVANIKQDGSEKYYVDSVKGRFTISRDNAKNSLYLQMNSLRAEDTAVYYCAREDFWSGYQDVWGQGTMVTVSA VL: not shown | 14.3 |  | 
B12-02 (antibody, V domains shown) VH: QVQLLESGGGLVQPGGSLRLSCAASGFTFSSYWMSWVRQAPGKGLEWVANIKQEGSEKYYVDSVKGRFTISRDNAKNSLYLQMNSLRAEDTAVYYCARVALWDDAFDIWGQGTMVTVSS VL: DIQMTQSPSTLSASVGDRVIITCRASRGISSWLAWYQQKPGKAPNLLISKASSLESGVPSRFSGSGSGTDFTLTISSLQPEDFATYYCQQSSSIPLTFGGGTKVEIK |  | 0.497 | 
B17 (antibody, V domains shown, Fab phage clone converted into full-length IgG; also called 67C2-23) VH: EVQLLESGGGLVQPGGSLRLSCAASGFTFSSNAMSWVRQAPGKGLEWVSAVGGGGVNTYYADSVKGRFTISRDNSKNTLYLQMNSLRAEDTAVYYCAKGEKGYSNSCIDYWGQGTLVTVSA VL: not shown | 36.1 |  | 
B11 (antibody, V domains shown, Fab phage clone converted into full-length IgG; also called 67C3-17) VH: EVQLLESGAEVKKPGSSVKVSCKASGGTFSSYAISWVRQAPGQGLEWMGGIIPIFGTANYAQKFQGRVTITADESTSTAYMELSSLRSEDTAVYYCARRTDSYGYSDAFDIWGQGTMVTVSA VL: not shown | 0.294 |  | 
B02 (antibody, V domains shown, Fab phage clone converted into full-length IgG; also called 67A2-20) VH: QVQLLESGGGLVKPGGSLRLSCAASGFTFSTYIINWVRQAPGKGLEWVSSVAASGDYAYYANSVKGRFTISRDNSKNTLYLQMNSLRAEDTAVYYCARDRSSGYYLSPNDAFDIWGQGTMVTVSA VL: NIQLTQSPSSLSASLGDRVTITCRASQTISRYLNWYQQKPGKAPELLIYATSSLQSGVPSRFSGSGSGTDFTLTISSLQPEDFATYYCQQSYSTPTTFGGGTKVEIK | 15.5 |  | 
B01 (antibody, V domains shown, Fab phage clone converted into full-length IgG; also called 67A3-5) VH: EVQLLESGGGLVQPGGSLRLSCAASGFTLSSHWLAWVRQAPGKGLEWVASIHQDASLEFYVDSVEGRFTISRDNSKRSLFLQMNNLRVEDTAVYYCARGDNQFDNWGQGTLVTVSA VL: not shown | 18 |  | 
